Measured values from article PMC10875832.

How the values were obtained:
[1] = molecular target: EDSV fibre knob (egg drop syndrome virus (EDSV)); test: SPR; Biacore X100, CM5 sensor chip; fibre knobs immobilised, soluble CAR domains in solution (said for D12); 1:1 binding model
[2] = molecular target: CELO fiber1 knob (chicken embryo lethal orphan (CELO) virus); test: as above
[3] = molecular target: FAdV-4 fiber1 knob (fowl adenovirus 4 (FAdV-4)); test: as above
[4] = molecular target: FAdV-4 fiber1 knob (fowl adenovirus 4 (FAdV-4)); test: crystal structure; crystal in 20% (w/v) PEG 4000 and 0.15 M potassium sulfate; one chain in the asymmetric unit, trimer by crystal symmetry

Substance | Kd [1] [µM] | Kd [2] [µM] | fold weaker affinity than the D1 domain for the same knob [2] [fold] | Kd [3] [µM] | stoichiometry N [4]
soluble CAR D2 domain (domain or fragment) | 4.77 | 11200 | 1000 | 6.29 | 
soluble CAR D1 domain (domain or fragment) | 2.76 |  |  | 7.42 | 
FAdV-4 fiber1 knob (domain or fragment) |  |  |  |  | 3
soluble CAR D12 (domain or fragment) | 2.67 |  |  | 0.868 | 
